According to patent publication US20200024360A1 (Janssen / Centocor, published 2020):
Where two headings read alike, the source gives them in different places.

T1: recombinant chimpanzee PSMA extracellular domain (ECD) protein (Pan troglodytes, UniProt Q04609 44-750 (human entry))
T1 construct: also called Chimp PSMA ECD; PSMG8
T1 chain: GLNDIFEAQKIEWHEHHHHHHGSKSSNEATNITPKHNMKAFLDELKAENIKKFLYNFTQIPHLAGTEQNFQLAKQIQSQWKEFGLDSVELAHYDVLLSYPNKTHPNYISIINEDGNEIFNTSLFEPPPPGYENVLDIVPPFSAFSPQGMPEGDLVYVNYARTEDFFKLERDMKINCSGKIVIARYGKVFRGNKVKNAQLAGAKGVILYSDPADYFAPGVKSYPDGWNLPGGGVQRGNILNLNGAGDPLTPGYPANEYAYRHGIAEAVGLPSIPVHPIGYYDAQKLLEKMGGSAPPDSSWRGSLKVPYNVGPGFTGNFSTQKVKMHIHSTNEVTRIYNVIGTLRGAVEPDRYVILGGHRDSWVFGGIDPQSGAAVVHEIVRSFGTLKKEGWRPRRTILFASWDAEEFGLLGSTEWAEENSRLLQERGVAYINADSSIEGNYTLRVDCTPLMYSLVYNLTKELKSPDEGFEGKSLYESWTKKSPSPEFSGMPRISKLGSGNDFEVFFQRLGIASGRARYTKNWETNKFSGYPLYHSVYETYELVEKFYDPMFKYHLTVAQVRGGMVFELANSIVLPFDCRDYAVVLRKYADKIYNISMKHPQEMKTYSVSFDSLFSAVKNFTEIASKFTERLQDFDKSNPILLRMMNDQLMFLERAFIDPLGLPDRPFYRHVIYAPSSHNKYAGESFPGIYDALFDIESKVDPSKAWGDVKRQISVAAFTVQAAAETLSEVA

T2: recombinant cynomolgous monkey PSMA extracellular domain (ECD) protein (Macaca fascicularis, UniProt Q04609 48-750 (human entry), biotin on the Avi tag)
T2 construct: also called cyno PSMA ECD; PSMG1
T2 chain: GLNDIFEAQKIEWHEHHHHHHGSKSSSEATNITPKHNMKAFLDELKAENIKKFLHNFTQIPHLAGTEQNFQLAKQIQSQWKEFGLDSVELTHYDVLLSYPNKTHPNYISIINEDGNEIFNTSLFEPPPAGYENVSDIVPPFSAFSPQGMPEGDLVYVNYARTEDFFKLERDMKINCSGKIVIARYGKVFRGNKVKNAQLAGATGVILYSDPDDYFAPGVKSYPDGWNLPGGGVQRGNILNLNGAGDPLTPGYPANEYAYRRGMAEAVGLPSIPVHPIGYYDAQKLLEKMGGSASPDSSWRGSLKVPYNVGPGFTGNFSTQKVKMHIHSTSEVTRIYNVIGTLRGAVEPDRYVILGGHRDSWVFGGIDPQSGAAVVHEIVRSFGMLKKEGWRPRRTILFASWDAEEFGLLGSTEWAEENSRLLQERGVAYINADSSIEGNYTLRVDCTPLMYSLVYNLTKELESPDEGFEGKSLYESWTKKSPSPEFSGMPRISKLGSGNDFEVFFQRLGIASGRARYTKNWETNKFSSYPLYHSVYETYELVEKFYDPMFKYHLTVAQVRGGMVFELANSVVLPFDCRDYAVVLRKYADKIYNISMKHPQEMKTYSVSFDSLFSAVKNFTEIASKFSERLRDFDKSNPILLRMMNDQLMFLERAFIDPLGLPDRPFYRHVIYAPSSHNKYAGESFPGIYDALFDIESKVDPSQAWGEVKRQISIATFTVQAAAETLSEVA

B1: PS3B27 (bispecific antibody, human IgG4 S228P, kappa, lambda, F234A L235A)
heavy 1: not shown
light 1: not shown
heavy 2: EVQLVESGGGLVQPGGSLRLSCAASGFTFNTYAMNWVRQAPGKGLEWVARIRSKYNNYATYYAASVKGRFTISRDDSKNSLYLQMNSLKTEDTAVYYCARHGNFGNSYVSWFAYWGQGTLVTVSSASTKGPSVFPLAPCSRSTSESTAALGCLVKDYFPEPVTVSWNSGALTSGVHTFPAVLQSSGLYSLSSVVTVPSSSLGTKTYTCNVDHKPSNTKVDKRVESKYGPPCPPCPAPEAAGGPSVFLFPPKPKDTLMISRTPEVTCVVVDVSQEDPEVQFNWYVDGVEVHNAKTKPREEQFNSTYRVVSVLTVLHQDWLNGKEYKCKVSNKGLPSSIEKTISKAKGQPREPQVYTLPPSQEEMTKNQVSLTCLVKGFYPSDIAVEWESNGQPENNYKTTPPVLDSDGSFLLYSKLTVDKSRWQEGNVFSCSVMHEALHNHYTQKSLSLSLGK
light 2: QTVVTQEPSLTVSPGGTVTLTCRSSTGAVTTSNYANWVQQKPGQAPRGLIGGTNKRAPGTPARFSGSLLGGKAALTLSGVQPEDEAEYYCALWYSNLWVFGGGTKLTVLGQPKAAPSVTLFPPSSEELQANKATLVCLISDFYPGAVTVAWKADSSPVKAGVETTTPSKQSNNKYAASSYLSLTPEQWKSHRSYSCQVTHEGSTVEKTVAPTECS
notes: IgG4 PAA; PSMA arm chains first, then CD3 arm (F405L, R409K); also called PSMB127 x CD3B219; PS2B27
B2: PS3B25 (bispecific antibody, human IgG4 S228P, kappa, lambda, F234A L235A)
heavy 1: not shown
light 1: not shown
heavy 2: EVQLVESGGGLVQPGGSLRLSCAASGFTFNTYAMNWVRQAPGKGLEWVARIRSKYNNYATYYAASVKGRFTISRDDSKNSLYLQMNSLKTEDTAVYYCARHGNFGNSYVSWFAYWGQGTLVTVSSASTKGPSVFPLAPCSRSTSESTAALGCLVKDYFPEPVTVSWNSGALTSGVHTFPAVLQSSGLYSLSSVVTVPSSSLGTKTYTCNVDHKPSNTKVDKRVESKYGPPCPPCPAPEAAGGPSVFLFPPKPKDTLMISRTPEVTCVVVDVSQEDPEVQFNWYVDGVEVHNAKTKPREEQFNSTYRVVSVLTVLHQDWLNGKEYKCKVSNKGLPSSIEKTISKAKGQPREPQVYTLPPSQEEMTKNQVSLTCLVKGFYPSDIAVEWESNGQPENNYKTTPPVLDSDGSFLLYSKLTVDKSRWQEGNVFSCSVMHEALHNHYTQKSLSLSLGK
light 2: QTVVTQEPSLTVSPGGTVTLTCRSSTGAVTTSNYANWVQQKPGQAPRGLIGGTNKRAPGTPARFSGSLLGGKAALTLSGVQPEDEAEYYCALWYSNLWVFGGGTKLTVLGQPKAAPSVTLFPPSSEELQANKATLVCLISDFYPGAVTVAWKADSSPVKAGVETTTPSKQSNNKYAASSYLSLTPEQWKSHRSYSCQVTHEGSTVEKTVAPTECS
notes: IgG4 PAA; also called PSMB87 x CD3B219

Columns and labels:
[1] = molecular target: T3, recombinant human PSMA extracellular domain (ECD) protein (human, UniProt Q04609 44-750); assay: SPR ProteOn
T3 construct: also called human PSMA ECD

[2] = molecular target: T1, recombinant chimpanzee PSMA …; assay: SPR ProteOn
[3] = molecular target: T2, recombinant cynomolgous monkey PSMA …; assay: SPR ProteOn
[4] = molecular target: T3, recombinant human PSMA extracellular …; assay: SPR ProteOn; remark: listed apart in the source
[5] = molecular target: T1, recombinant chimpanzee PSMA …; assay: SPR ProteOn
[6] = molecular target: T2, recombinant cynomolgous monkey PSMA …; assay: SPR ProteOn
[7] = molecular target: T1, recombinant chimpanzee PSMA …; assay: SPR ProteOn, bsAb captured by anti-Fc
Procedure: The interactions of PSMA×CD3 bispecific mAbs with target (recombinant Chimp, PSMA) were studied by Surface Plasmon Resonance (SPR) using a ProteOn XPR36 system (BioRad). […] Approximately 4400 RU (response units) of anti-Human IgG Fc antibodies were immobilized. The kinetic experiments were performed at 25° C. in running buffer (DPBS+0.03% P20+100 μg/ml BSA). […] The association phase was monitored for 3 minutes at 50 μL/min, then followed by 15 minutes of buffer flow (dissociation phase). The chip surface was regenerated with two 18 second pulses of 100 mM Phosphoric acid (H₃PO₄, Sigma, cat #7961) at 100 μL/min.
The collected data were processed using ProteOn Manager software. First, the data was corrected for background using inter-spots. Then, double reference subtraction of the data was performed by using the buffer injection for analyte injections. The kinetic analysis of the data was performed using a Langmuir 1:1 binding model.

Binder	Kd [1]	Kd [2]	Kd [3]	Kd [4]	koff [4]	kon [4]	Kd [5]	koff [5]	kon [5]	Kd [6]	koff [6]	kon [6]	Kd [7]	koff [7]	kon [7]
B1	10.3 nM	7.48 nM	7 nM	10.3 nM	0.00289 s⁻¹	287000 M⁻¹ s⁻¹	7.48 nM	0.00156 s⁻¹	208000 M⁻¹ s⁻¹	7 nM	0.0011 s⁻¹	159000 M⁻¹ s⁻¹	7.48 nM	0.00156 s⁻¹	208000 M⁻¹ s⁻¹
B2	5.38 nM	3.54 nM	81.1 nM	5.38 nM	0.00101 s⁻¹	188000 M⁻¹ s⁻¹	3.54 nM	0.00099 s⁻¹	281000 M⁻¹ s⁻¹	81.1 nM	0.00797 s⁻¹	98000 M⁻¹ s⁻¹	3.54 nM	0.00099 s⁻¹	281000 M⁻¹ s⁻¹
